# Reference: patent US20250189530A1 (STCUBE, published 2025)
# T1: BTN1A1 Peptide 4 (human)
# T1 construct: also called BTN1A1-pep4- WT; Pep4
# T1 peptide: EVEVGDRTDWAIGVC
# T2: denatured hBTN1A1 ICD (human, UniProt Q13410 270-526)
# T2 construct: Same protein as hBTN1A1 ICD, denatured before the ELISA; also called hBTN1A1 ICD denatured; Denatured ICD
# T2 sequence: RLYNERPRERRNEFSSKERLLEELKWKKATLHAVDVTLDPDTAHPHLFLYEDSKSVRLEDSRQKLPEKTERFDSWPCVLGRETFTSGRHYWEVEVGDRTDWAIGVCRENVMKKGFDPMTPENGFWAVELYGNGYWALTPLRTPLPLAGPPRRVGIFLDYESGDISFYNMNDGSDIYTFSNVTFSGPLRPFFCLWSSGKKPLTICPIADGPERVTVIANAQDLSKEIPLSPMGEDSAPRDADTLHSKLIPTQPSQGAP
# T3: hBTN1A1 ICD (human, UniProt Q13410 270-526)
# T3 sequence: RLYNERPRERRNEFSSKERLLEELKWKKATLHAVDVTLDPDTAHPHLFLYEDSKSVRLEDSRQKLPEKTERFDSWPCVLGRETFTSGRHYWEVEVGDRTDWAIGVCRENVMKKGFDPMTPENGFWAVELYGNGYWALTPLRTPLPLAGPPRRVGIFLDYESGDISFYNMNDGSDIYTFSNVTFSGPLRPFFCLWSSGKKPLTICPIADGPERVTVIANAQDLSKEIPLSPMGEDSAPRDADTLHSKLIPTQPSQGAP
# Experiments:
# [1] = molecular target: peptide 4 variant G373A expressed by HEK293T cells (human); assay: western blot, HEK293T lysate, antibody 1 ug/ml
# BTN1A1 Peptide 4 [2] = molecular target: T1, BTN1A1 Peptide 4; assay: ELISA clone screen, GenScript
# denatured hBTN1A1 ICD [3] = molecular target: T2, denatured hBTN1A1 ICD; assay: ELISA clone screen, GenScript
# hBTN1A1 ICD [4] = molecular target: T3, hBTN1A1 ICD; assay: ELISA clone screen, GenScript
# BTN1A1 Peptide 4 [5] = molecular target: T1, BTN1A1 Peptide 4; assay: ELISA, 10X dilution
# denatured hBTN1A1 ICD [6] = molecular target: T2, denatured hBTN1A1 ICD; assay: ELISA, 10X dilution
# hBTN1A1 ICD [7] = molecular target: T3, hBTN1A1 ICD; assay: ELISA, 10X dilution
binder,measurement,setting,value
"STC43H11-1 (antibody, V domains shown, From immunized New Zealand rabbits; IgG heavy chain and Kappa light chain; also called clone #43H11; Clone 43H11) VH: QSLEESGGRLVTPGGSLTLTCTVSGIDLSSYAMGWVRQAPGEGLEWIGSIGTGGGTGYASWAKGRFTISKTSTTVDLKMTSLTASDTATYFCATSNLWGPGTLVTVSS VL: QVLTQTASPVSAAVGGTVTINCQASQSVYNNNRCSWFQQKPGQPPKRLIYHTSTLDSGVPSRFKGSGSGTQFTLTISDVQCDDAATYYCLGNYDCSRADCAAFGGGTEVVVK",STC43H11-1 Adj. Vol. (Int),[1],19900
same,ELISA signal,BTN1A1 Peptide 4 [2],0.609
same,ELISA signal,denatured hBTN1A1 ICD [3],2.27
same,ELISA signal,hBTN1A1 ICD [4],1.6
same,ELISA signal,BTN1A1 Peptide 4 [5],2.83
same,ELISA signal,denatured hBTN1A1 ICD [6],2.9
same,ELISA signal,hBTN1A1 ICD [7],2.96
